Targets include TrkA (Homo sapiens, UniProt P04629); EPH-A4 (Homo sapiens, UniProt P54764); PAK6 (Homo sapiens, UniProt Q9NQU5); p38a MAPK (Homo sapiens, UniProt Q16539); ERK2 (Homo sapiens, UniProt P28482); FGF-R1 (Homo sapiens, UniProt P11362); PLK1 (Homo sapiens, UniProt P53350).
Test in all cases: Kinase panel residual activity
Common to all, as to type: biochemical
What all share (conditions): compound at 1 micromolar

A further data set has as its target T1, PKCz (Homo sapiens, UniProt Q05513).
T1 sequence (Q05513 1-592): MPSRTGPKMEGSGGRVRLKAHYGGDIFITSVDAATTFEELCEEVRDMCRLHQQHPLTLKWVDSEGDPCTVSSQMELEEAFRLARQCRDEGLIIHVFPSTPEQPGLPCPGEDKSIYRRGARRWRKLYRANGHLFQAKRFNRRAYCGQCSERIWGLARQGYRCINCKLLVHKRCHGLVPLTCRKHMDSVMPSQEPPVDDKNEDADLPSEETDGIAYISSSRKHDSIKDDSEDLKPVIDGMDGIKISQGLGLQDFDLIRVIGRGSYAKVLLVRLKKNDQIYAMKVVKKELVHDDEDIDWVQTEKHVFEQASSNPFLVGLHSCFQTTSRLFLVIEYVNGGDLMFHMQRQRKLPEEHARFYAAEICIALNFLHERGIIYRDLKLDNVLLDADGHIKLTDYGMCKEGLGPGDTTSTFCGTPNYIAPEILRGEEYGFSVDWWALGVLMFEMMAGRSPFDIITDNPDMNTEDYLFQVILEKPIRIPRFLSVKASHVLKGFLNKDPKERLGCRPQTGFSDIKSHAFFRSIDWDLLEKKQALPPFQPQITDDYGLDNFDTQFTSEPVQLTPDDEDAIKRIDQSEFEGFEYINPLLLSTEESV

The target of the next data set is T2, SGK1 (Homo sapiens, UniProt O00141).
T2 sequence (O00141 1-431): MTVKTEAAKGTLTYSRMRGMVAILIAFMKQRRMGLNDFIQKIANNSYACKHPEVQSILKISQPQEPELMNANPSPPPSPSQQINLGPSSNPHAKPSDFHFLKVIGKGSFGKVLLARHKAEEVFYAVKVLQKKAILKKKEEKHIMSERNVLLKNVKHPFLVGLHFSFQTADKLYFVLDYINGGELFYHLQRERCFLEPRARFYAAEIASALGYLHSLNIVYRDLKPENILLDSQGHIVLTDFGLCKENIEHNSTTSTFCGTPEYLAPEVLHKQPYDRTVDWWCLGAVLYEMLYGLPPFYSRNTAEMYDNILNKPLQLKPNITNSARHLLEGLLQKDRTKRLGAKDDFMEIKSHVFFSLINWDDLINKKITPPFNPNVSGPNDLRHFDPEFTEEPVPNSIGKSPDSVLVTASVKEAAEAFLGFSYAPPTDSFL

The target in the next data set is T3, PRAK (Homo sapiens, UniProt Q8IW41).
T3 sequence (Q8IW41 1-473): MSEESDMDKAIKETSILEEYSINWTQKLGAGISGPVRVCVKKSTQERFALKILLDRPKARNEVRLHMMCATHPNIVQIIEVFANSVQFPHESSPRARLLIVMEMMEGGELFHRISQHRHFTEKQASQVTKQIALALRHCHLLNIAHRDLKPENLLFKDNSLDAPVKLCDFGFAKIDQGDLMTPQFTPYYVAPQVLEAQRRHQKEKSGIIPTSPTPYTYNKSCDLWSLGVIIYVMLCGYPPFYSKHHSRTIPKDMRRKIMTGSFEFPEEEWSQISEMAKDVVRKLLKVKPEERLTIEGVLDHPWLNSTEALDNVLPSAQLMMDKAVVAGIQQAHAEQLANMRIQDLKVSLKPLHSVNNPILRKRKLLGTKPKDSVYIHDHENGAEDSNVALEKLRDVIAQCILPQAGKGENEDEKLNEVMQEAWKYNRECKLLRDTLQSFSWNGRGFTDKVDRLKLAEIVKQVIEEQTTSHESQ

In a further data set the target is T4, BRSK1 (Homo sapiens, UniProt Q8TDC3).
T4 sequence (Q8TDC3 1-778): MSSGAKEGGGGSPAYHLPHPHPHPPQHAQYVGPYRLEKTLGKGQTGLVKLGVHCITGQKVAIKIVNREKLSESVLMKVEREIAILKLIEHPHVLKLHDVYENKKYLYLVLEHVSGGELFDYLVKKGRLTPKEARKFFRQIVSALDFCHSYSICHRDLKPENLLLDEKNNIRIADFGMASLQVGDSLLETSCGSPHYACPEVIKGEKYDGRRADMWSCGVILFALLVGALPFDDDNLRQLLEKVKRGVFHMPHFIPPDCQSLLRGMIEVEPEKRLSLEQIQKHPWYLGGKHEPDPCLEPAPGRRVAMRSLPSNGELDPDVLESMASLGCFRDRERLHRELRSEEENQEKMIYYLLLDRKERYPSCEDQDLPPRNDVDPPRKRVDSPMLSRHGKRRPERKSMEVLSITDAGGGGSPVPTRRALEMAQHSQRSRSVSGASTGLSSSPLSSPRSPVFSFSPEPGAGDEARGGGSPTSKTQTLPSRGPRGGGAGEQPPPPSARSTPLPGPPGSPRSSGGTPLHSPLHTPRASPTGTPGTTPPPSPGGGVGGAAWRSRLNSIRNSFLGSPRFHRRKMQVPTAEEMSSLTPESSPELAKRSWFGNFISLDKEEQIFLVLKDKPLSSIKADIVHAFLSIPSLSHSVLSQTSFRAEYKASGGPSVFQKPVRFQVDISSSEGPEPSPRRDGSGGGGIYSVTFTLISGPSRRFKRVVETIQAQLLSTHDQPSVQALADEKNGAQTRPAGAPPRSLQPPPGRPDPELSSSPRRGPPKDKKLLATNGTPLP

Here are results for one compound from US9176064B2, “Bisubstrate fluorescent probes for protein kinase CK2” (University of Tartu, priority 2012, dated 2015).

Molecules are shown by their SMILES. Where a SMILES comes first, the peptide text is derived from it. [ ]: non-standard residue; d: D form. The star is where a group is joined. X1 = O=C(CCCCCCCn1cnc2c(Br)c(Br)c(Br)c(Br)c21)*

Sequence of EPH-A4 (P54764 20-986, species assumed): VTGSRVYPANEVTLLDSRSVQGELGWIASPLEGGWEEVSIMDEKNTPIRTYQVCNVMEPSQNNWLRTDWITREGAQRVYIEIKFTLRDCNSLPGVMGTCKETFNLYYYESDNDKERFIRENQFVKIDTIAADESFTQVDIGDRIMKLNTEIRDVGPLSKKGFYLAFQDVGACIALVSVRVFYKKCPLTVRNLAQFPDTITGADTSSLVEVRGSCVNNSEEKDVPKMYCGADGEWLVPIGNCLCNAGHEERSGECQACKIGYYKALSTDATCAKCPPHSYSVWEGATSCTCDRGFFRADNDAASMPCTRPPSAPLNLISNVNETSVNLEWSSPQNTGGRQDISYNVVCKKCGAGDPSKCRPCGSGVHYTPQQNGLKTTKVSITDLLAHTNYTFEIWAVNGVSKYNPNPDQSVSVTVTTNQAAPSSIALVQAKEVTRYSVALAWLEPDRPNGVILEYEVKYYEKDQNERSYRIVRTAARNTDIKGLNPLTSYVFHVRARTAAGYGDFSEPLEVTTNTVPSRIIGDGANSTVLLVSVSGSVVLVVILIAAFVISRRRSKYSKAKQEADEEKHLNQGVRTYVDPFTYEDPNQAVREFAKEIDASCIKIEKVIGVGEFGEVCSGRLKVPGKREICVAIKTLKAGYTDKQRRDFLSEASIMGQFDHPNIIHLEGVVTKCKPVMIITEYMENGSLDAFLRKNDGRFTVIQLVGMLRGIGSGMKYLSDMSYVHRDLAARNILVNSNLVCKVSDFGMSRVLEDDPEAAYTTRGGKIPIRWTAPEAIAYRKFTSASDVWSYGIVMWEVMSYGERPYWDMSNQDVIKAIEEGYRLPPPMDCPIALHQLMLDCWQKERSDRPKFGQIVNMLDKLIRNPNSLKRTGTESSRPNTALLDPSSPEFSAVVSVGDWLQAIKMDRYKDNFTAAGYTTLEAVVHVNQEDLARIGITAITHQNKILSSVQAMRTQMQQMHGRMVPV
Sequence of PLK1 (P53350 whole entry, species assumed): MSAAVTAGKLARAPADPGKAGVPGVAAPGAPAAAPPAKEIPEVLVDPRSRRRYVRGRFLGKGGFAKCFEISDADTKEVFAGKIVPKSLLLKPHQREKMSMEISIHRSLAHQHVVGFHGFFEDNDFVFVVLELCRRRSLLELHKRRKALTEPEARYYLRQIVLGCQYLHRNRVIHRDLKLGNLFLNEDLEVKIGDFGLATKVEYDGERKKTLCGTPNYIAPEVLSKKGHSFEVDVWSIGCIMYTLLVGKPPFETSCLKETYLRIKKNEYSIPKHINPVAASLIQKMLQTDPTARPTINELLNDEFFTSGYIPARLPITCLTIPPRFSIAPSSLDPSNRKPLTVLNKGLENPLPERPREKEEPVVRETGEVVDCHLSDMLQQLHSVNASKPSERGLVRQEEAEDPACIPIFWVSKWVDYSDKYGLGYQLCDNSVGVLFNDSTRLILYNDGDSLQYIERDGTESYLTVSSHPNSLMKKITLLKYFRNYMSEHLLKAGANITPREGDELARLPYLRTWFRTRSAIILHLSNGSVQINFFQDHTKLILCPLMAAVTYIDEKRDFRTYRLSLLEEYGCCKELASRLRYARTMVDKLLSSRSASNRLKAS
Sequence of TrkA (P04629 33-796, species assumed): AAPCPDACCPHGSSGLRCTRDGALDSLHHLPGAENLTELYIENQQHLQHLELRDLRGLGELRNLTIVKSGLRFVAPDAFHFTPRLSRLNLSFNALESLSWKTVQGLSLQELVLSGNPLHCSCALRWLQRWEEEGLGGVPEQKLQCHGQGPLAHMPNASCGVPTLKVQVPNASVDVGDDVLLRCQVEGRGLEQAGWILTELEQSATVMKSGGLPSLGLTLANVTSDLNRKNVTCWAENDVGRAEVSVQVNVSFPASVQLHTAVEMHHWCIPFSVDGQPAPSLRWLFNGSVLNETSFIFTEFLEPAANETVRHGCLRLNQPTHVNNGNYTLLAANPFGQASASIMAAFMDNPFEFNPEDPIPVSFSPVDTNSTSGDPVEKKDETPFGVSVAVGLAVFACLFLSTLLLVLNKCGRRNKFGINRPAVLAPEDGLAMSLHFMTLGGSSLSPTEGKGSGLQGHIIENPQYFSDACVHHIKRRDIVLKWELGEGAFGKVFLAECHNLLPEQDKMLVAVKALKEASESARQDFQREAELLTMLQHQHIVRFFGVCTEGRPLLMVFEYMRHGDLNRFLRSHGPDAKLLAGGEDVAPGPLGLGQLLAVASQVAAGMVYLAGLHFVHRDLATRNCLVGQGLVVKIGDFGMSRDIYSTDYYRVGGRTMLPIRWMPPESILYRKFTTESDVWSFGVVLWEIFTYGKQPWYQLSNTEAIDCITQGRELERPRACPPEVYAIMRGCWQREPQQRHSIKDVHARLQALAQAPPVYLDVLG
Sequence of FGF-R1 (P11362 22-822, species assumed): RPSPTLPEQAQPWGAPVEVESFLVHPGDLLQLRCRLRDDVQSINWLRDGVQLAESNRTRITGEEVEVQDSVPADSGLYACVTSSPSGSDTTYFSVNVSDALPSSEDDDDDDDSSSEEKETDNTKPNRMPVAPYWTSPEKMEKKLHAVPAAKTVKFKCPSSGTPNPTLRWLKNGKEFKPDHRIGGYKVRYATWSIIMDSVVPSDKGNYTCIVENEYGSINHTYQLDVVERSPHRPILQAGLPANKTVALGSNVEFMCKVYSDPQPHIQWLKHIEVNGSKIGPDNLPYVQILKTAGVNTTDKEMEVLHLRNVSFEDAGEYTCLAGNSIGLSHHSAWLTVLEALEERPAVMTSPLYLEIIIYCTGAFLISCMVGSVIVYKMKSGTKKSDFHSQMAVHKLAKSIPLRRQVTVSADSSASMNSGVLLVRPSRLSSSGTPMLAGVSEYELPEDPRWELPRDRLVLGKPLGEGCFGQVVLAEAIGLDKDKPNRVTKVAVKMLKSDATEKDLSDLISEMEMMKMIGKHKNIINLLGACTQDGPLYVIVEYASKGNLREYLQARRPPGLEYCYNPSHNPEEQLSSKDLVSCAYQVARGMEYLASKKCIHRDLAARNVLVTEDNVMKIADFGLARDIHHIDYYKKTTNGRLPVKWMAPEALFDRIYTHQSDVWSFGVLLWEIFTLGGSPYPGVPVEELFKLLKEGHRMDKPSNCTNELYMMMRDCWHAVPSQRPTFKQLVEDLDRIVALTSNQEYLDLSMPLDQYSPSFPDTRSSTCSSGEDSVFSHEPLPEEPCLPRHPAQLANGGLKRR
Sequence of PAK6 (Q9NQU5 whole entry, species assumed): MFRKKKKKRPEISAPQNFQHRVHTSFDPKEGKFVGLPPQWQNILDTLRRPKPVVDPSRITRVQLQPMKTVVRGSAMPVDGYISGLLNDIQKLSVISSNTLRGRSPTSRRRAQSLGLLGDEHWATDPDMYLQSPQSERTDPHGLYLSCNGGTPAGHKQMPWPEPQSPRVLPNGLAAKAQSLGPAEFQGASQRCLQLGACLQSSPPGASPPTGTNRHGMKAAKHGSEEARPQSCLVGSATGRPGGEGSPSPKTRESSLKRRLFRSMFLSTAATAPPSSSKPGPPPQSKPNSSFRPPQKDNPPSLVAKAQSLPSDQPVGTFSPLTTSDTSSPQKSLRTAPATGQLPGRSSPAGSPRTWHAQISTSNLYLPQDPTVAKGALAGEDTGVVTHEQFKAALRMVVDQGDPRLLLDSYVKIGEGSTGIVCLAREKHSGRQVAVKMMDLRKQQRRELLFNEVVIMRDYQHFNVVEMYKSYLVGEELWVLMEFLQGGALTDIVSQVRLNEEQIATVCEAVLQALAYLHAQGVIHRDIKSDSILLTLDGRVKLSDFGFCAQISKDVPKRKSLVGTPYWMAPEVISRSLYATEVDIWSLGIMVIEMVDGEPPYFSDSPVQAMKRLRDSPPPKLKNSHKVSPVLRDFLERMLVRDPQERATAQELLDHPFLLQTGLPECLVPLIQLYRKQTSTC
Sequence of p38a MAPK (Q16539 whole entry): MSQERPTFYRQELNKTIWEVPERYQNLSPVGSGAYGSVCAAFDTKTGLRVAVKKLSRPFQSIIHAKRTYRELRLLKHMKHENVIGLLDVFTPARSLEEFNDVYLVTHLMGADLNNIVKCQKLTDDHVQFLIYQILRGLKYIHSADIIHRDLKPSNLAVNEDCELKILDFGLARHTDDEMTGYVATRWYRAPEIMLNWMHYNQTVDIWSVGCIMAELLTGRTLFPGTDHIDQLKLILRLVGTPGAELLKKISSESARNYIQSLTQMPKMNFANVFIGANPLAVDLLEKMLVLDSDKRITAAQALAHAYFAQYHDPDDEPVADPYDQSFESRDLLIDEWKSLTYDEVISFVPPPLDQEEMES
Sequence of ERK2 (P28482 whole entry, species assumed): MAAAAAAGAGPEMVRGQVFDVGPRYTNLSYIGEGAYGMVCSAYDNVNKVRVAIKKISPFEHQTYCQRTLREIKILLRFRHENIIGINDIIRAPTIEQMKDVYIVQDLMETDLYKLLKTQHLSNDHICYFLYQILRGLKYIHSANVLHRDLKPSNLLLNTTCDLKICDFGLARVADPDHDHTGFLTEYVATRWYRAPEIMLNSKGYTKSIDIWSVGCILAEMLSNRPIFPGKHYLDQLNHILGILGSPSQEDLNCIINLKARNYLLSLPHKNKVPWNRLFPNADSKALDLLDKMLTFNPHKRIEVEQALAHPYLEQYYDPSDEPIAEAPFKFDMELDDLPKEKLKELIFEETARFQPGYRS

By remaining activity is commonly meant the signal under treatment as a percentage of the control signal. Consider `NCCCC[C@H](NC(=O)[C@H](CC(=O)O)NC(=O)[C@H](CC(=O)O)NC(=O)[C@H](CC(=O)O)NC(=O)[C@H](CC(=O)O)NC(=O)[C@H](CC(=O)O)NC(=O)[C@@H](CC(=O)O)NC(=O)CCCCCCCn1cnc2c(Br)c(Br)c(Br)c(Br)c21)C(=O)O` [TBBI-OcA-(D-Asp)-(L-Asp)5-(L-Lys)-OH] (X1-[dD]DDDDDK-OH), for which the remaining activity at 1 µM with TrkA came out at 111%; with EPH-A4 it was 117%; with PAK6, 86%; with PKCz it was 105%; with SGK1 it was 127%; in the data set with p38a MAPK it was 116%. The remaining activity at 1 µM in the data set with ERK2 worked out at 92%; with FGF-R1 it was 110%; in the data set with PRAK, 74%; in the data set with BRSK1, 95%; in the data set with PLK1, 18%.
